Reference: patent US8026218 (UNIVERSITY OF ARIZONA, dated 2011)
Like-named read-outs stand apart in the source and are kept apart here. Square brackets hold non-standard residues; d marks the D form. Ends that are not written are not given here. * marks the point of attachment. O‑Bzl(CF3)2 = C-terminal bis(trifluoromethyl)benzyl ester; OBzl(3,5-(CF3)2) = FC(F)(F)c1cc(CO*)cc(C(F)(F)F)c1; Dmt = Cc1cc(O)cc(C)c1C[C@H](N)C(=O)O; NHBn = c1ccc(CN*)cc1

Tests used:
[1] = molecular target: T1, human δ opioid receptor (human, UniProt P41143 1-372); experiment: competition vs [3H]DPDPE, membranes of hDOR-transfected HN9.10 cells
T1 construct: whole, on cells; Assayed as membrane preparations of transfected cells; also called hDOR; DOR
T1 sequence (P41143 whole entry, stated change not applied): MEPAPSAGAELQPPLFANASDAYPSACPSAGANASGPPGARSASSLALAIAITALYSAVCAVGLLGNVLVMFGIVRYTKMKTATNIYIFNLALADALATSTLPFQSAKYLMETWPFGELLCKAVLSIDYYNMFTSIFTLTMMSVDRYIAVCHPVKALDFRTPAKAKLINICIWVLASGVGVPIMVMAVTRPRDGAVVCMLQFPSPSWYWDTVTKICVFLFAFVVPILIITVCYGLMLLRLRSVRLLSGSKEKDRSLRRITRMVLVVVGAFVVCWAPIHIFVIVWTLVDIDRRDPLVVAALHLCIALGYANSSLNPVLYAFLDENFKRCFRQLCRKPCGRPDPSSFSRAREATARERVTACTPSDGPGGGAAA

[2] = molecular target: T1, human δ opioid receptor; experiment: cell-based or functional assay
[3] = molecular target: guinea pig NK1 receptor (guinea pig, UniProt P30547 1-407); experiment: cell-based or functional assay
Target sequence in this assay (P30547 whole entry): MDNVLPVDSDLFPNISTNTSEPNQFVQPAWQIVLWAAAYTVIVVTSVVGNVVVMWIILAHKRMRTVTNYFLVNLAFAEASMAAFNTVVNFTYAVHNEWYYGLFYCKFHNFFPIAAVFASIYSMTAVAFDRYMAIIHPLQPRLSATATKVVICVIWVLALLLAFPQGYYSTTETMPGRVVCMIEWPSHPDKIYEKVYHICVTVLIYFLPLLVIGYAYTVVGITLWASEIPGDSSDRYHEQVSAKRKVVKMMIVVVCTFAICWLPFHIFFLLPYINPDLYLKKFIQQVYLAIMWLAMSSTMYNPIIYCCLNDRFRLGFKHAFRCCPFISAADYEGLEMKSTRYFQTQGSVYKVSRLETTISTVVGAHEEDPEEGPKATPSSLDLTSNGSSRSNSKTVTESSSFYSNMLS

[4] = molecular target: µ opioid receptor of the guinea pig isolated ileum (guinea pig); experiment: cell-based or functional assay
[5] = molecular target: T2, rat NK1 receptor (rat, UniProt P14600 1-407); experiment: competition vs [3H]Substance P, rNK1 CHO cell membranes
T2 construct: whole, on cells; membrane preparations of the transfected cells were used; also called rNK1; rNK-1
T2 sequence (P14600 whole entry): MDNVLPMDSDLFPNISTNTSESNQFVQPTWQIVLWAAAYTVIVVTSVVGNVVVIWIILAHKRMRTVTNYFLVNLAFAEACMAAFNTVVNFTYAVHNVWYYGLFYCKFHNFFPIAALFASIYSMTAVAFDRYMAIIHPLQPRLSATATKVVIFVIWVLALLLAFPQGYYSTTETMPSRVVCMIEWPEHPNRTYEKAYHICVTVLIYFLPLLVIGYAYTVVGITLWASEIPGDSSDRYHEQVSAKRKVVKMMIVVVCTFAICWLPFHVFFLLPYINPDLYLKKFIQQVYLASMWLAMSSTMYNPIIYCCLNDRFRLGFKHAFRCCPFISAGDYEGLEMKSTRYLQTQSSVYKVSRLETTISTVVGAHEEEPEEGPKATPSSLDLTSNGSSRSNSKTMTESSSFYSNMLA

[6] = molecular target: T3, human δ opioid receptor (human, UniProt P41143 1-372); experiment: competition vs [3H]DPDPE, hDOR cell membranes
T3 construct: whole, on cells; membrane preparations of the transfected cells were used; also called hDOR; DOR
T3 sequence (P41143 whole entry, stated change not applied): as the sequence (P41143 whole entry, stated change not applied) above

[7] = molecular target: T3, human δ opioid receptor; experiment: cell-based or functional assay; remark: listed apart in the source
[8] = molecular target: µ opioid receptor of the guinea pig isolated ileum (guinea pig, UniProt P97266 1-98); experiment: cell-based or functional assay
Target sequence in this assay (P97266 whole entry): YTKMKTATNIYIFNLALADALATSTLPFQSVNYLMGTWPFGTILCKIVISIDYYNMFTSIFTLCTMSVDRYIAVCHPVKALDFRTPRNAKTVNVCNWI

[9] = molecular target: guinea pig NK1 receptor (guinea pig, UniProt P30547 1-407); experiment: cell-based or functional assay; remark: listed apart in the source
Target sequence in this assay (P30547 whole entry): as the sequence (P30547 whole entry) above

[10] = molecular target: T4, rat NK1 receptor (rat, UniProt P14600 1-407); experiment: competition vs [3H]substance P, membranes of rNK1-transfected CHO cells
T4 construct: whole, on cells; Assayed as membrane preparations of transfected CHO cells; also called rNK1; rNK-1
T4 sequence (P14600 whole entry): as the sequence (P14600 whole entry) above

[11] = molecular target: T5, rat µ opioid receptor (rat, UniProt P33535 1-398); experiment: competition vs [3H]DAMGO, membranes of rMOR-transfected HN9.10 cells
T5 construct: whole, on cells; Assayed as membrane preparations of transfected cells; also called rMOR; MOR
T5 sequence (P33535 whole entry): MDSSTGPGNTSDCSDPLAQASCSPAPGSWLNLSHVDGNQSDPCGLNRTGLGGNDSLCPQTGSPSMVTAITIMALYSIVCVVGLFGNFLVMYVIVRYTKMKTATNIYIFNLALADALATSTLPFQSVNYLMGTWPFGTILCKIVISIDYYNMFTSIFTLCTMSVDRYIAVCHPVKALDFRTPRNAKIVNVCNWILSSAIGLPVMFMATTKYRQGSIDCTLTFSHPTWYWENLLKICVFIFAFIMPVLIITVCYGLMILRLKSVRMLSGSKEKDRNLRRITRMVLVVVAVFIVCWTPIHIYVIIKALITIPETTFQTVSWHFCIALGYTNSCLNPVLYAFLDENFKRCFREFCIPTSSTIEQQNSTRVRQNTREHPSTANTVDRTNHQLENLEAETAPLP

[12] = molecular target: T5, rat µ opioid receptor; experiment: cell-based or functional assay
[13] = molecular target: T6, rat µ opioid receptor (rat, UniProt P33535 1-398); experiment: cell-based or functional assay; remark: listed apart in the source
T6 sequence (P33535 whole entry): as above

[14] = molecular target: T3, human δ opioid receptor; experiment: cell-based or functional assay; remark: listed apart in the source
[15] = molecular target: T2, rat NK1 receptor; experiment: competition vs [3H]Substance P, rNK1 CHO cell membranes; remark: listed apart in the source
[16] = molecular target: T3, human δ opioid receptor; experiment: competition vs [3H]DPDPE, hDOR cell membranes; remark: listed apart in the source
[17] = molecular target: T6, rat µ opioid receptor; experiment: competition vs [3H]DAMGO, rMOR cell membranes
[18] = molecular target: T7, human NK1 receptor (human, UniProt P25103 1-407); experiment: competition vs [3H]Substance P, hNK1 CHO cell membranes
T7 construct: whole, on cells; membrane preparations of the transfected cells were used; also called hNK1; human neurokinin-1 receptor
T7 sequence (P25103 whole entry): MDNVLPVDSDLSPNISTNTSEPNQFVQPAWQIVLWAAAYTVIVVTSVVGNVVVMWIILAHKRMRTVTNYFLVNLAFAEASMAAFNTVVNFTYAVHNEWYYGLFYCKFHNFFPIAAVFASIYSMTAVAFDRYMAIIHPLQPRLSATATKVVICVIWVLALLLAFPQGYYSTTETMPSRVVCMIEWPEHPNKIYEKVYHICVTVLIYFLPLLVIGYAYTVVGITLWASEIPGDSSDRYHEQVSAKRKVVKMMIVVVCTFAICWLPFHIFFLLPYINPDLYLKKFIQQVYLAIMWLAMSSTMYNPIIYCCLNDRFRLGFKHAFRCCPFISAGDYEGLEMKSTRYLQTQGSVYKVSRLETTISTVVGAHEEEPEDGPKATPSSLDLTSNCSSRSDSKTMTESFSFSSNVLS

[19] = molecular target: T4, rat NK1 receptor; experiment: competition vs [3H]substance P, membranes of rNK1-transfected CHO cells; remark: listed apart in the source
[20] = molecular target: T8, human NK1 receptor (human, UniProt P25103 1-407); experiment: competition vs [3H]substance P, membranes of hNK1-transfected CHO cells
T8 construct: whole, on cells; Assayed as membrane preparations of transfected CHO cells; also called hNK1; human neurokinin-1 receptor
T8 sequence (P25103 whole entry): as above

[21] = molecular target: T9, human NK1 receptor (human, UniProt P25103 1-407); experiment: radioligand competition vs [3H]substance P, membranes of hNK1 CHO cells
T9 construct: whole, on cells; Used as membrane preparations of transfected CHO cells; also called hNK1; human neurokinin-1 receptor
T9 sequence (P25103 whole entry): as above

[22] = molecular target: T10, rat µ opioid receptor (rat, UniProt P33535 1-398); experiment: radioligand competition vs [3H]DAMGO, membranes of rMOR cells
T10 construct: whole, on cells; Used as crude membrane preparations of the transfected cells; also called rMOR; MOR
T10 sequence (P33535 whole entry): as the sequence (P33535 whole entry) above

[23] = molecular target: µ opioid receptor of the guinea pig isolated ileum (guinea pig, UniProt P97266 1-98); experiment: cell-based or functional assay; remark: listed apart in the source
Target sequence in this assay (P97266 whole entry): as the sequence (P97266 whole entry) above

[24] = molecular target: T11, human δ opioid receptor (human, UniProt P41143 1-372); experiment: cell-based or functional assay; remark: listed apart in the source
T11 sequence (P41143 whole entry, stated change not applied): as the sequence (P41143 whole entry, stated change not applied) above

[25] = molecular target: T10, rat µ opioid receptor; experiment: cell-based or functional assay; remark: listed apart in the source
[26] = molecular target: guinea pig NK1 receptor (guinea pig, UniProt P30547 1-407); experiment: cell-based or functional assay; remark: listed apart in the source
Target sequence in this assay (P30547 whole entry): as the sequence (P30547 whole entry) above

[27] = molecular target: T12, rat NK1 receptor (rat, UniProt P14600 1-407); experiment: radioligand competition vs [3H]substance P, membranes of rNK1 CHO cells
T12 construct: whole, on cells; Used as membrane preparations of transfected CHO cells; also called rNK1; rat neurokinin-1 receptor
T12 sequence (P14600 whole entry): as the sequence (P14600 whole entry) above

[28] = molecular target: T11, human δ opioid receptor; experiment: radioligand competition vs [3H]DPDPE, membranes of hDOR cells

B1: H-Tyr-D-Ala-Gly-Phe-Nle-Pro-Leu-Trp-O-3,5-Bzl(CF3)2 (peptide)
peptide: YAGFXPLW
modifications: D-Ala at 2; Nle (norleucine, written X) at 5; C-terminal 3,5-bis(trifluoromethyl)benzyl ester
notes: TFA salt; also called TY018
Ki [1]: 1.8 nM
LogIC50 [1]: -8.42
[35S]GTP-γ-S binding EC50 [2]: 4 nM
[35S]GTP-γ-S binding Emax [2]: 129%
[35S]GTP-γ-S binding LogEC50 [2]: -8.4
Substance P GPI antagonist Ke [3]: 7.9 nM
GPI (µ) opioid agonist IC50 [4]: 372 nM

YAGFMPLW (D-Ala at 2; Met(O) at 5; C-terminal O-3,5-Bzl(CF3)2 ester, also called TY023) [TyrDAlaGlyPheMet(O)ProLeuTrpOBn(CF3)2]
IC50 [5]: 54.5 nM
Ki [6]: 5.1 nM
GTP binding Emax [7]: 52.8%
GPI/LMMP IC50 [8]: 154 nM
GPI/LMMP SP antagonist Ke [9]: 7.8 nM

H-Y[dA]GFLPLW-{OBzl(3,5-(CF3)2)} (also: TFA salt, TFA salt; also called TY004) [H-Tyr-D-Ala-Gly-Phe-Leu-Pro-Leu-Trp-O-3,5-Bzl(CF3)2]
Ki [1]: 5 nM
LogIC50 [1]: -7.97
IC50 [10]: 20.9 nM
LogIC50 [10]: -7.7
Ki [11]: 23.3 nM
[35S]GTP-γ-S binding EC50 [2]: 9.6 nM
[35S]GTP-γ-S binding Emax [2]: 44%
[35S]GTP-γ-S binding LogEC50 [2]: -8.09
[35S]GTP-γ-S binding Emax [12]: 46%
Substance P GPI antagonist Ke [3]: 19.4 nM
GPI (µ) opioid agonist IC50 [4]: 341 nM

Y[dA]GFGW-{O‑Bzl(CF3)2} [Tyr-DAla-Gly-Phe-Gly-Trp-O-Bzl(CF3)2]
GTP EMax [13]: 36
GTP EMax [14]: 87

Y[dA]GFAW-{O‑Bzl(CF3)2} (also called NP31) [Tyr-DAla-Gly-Phe-Ala-Trp-O-Bzl(CF3)2]
Ki [15]: 8.6 nM
GTP EMax [13]: 50
GTP EMax [14]: 91
Ki [16]: 1.2 nM
Ki [17]: 3.6 nM

Y[dA]GF[dA]W-{O‑Bzl(CF3)2} (also called NP40) [Tyr-DAla-Gly-Phe-D-Ala-Trp-O-Bzl(CF3)2]
Ki [15]: 2.4 nM
GTP EMax [13]: 19
GTP EMax [14]: 89
Ki [16]: 3.9 nM
Ki [18]: 0.011 nM
Ki [17]: 2.8 nM

Y[dA]GFLW-{O‑Bzl(CF3)2} (also called NP37) [Tyr-DAla-Gly-Phe-Leu-Trp-O-Bzl(CF3)2]
Ki [15]: 0.29 nM
GTP EMax [13]: 54
GTP EMax [14]: 60
Ki [16]: 2.9 nM
Ki [18]: 0.09 nM
Ki [17]: 23.3 nM

Y[dA]GFMW-{O‑Bzl(CF3)2} (also called NP38) [Tyr-DAla-Gly-Phe-Met-Trp-O-Bzl(CF3)2]
Ki [15]: 0.089 nM
GTP EMax [13]: 51
GTP EMax [14]: 36
Ki [16]: 0.6 nM
Ki [18]: 0.009 nM
Ki [17]: 3.3 nM

Y[dA]GFPW-{O‑Bzl(CF3)2} (also called NP39) [Tyr-DAla-Gly-Phe-Pro-Trp-O-Bzl(CF3)2]
Ki [15]: 1.6 nM
GTP EMax [13]: 47
GTP EMax [14]: 56
Ki [18]: 0.1 nM
Ki [17]: 14.8 nM

H-Y[dA]GFPLW-{NMe‑Bn(CF3)2} (also: TFA salt, TFA salt; also called TY013) [H-Tyr-D-Ala-Gly-Phe-Pro-Leu-Trp-NMe-3,5-Bzl(CF3)2]
Ki [19]: 6.1 nM
LogIC50 [20]: -8.5

[Dmt][dA]GFMPLW-NHBn [DmtDAlaGlyPheMetProLeuTrpNHBn (TY034)]
Ki [21]: 2.39 nM
Ki [22]: 0.14 nM
GPI/LMMP opioid(mu) agonist IC50 [23]: 11.4 nM
GTP binding hDOR EC50 [24]: 0.3 nM
GTP binding rMOR EC50 [25]: 0.4 nM
GPI/LMMP SP antagonist Ke [26]: 36.9 nM
Ki [27]: 317 nM
Ki [28]: 0.1 nM
